From patent US5580712

Target: FLAG epitope Trypsin site N-terminally tagged 9 repeat GG biopolymer (SEQ ID NO:20)

Trypsin (type XI DPCC treated) (enzyme) showed a completeness of proteolytic cleavage, from relative mobility on SDS gels of 100%.
